This passage reports protein production results from a protein production outcome set (Wang et al. 2014).

This data set in a line: label from the status in PepcDB records.

For “MQAYVLHFIALVIMSLTGTTSGAFAQNGQSTEVSGPIEDRVPHRHQERPGERMPADYGTPRLLNLGAHTFPVSTSNQLAQQYMNQGLNLSYAFNHAEAGRAFREAARLDPALAMAYWGQALVLGPNINAPMEAKNEVSALELVRKAASLAAGVSDRERALIGALEKRYTGNSEDRKANDKAYANAMREVHRRFSGDQDIAMLFVESVMDTSPWGYWMRDDYPMEGTREIVAVTEGVLQGNPRHPGATHMYIHLMEPTNMPERAAQAADTLLTLMPDAGHLIHMPSHIYLRVGRYEDAIIANQRAIAADVRYLVRQHEHGFYAMAYFPHNIHFLGAAATADGQSELAIDSARKVASTIDDAVLKEMPMTGVFRVVPYWALTRFGKWDEMLQEPEPPSSNAFLKGGWHYARGLAFVAKRQLSEAEQELAALREIMKDDSLDGPLLSVNTARSVLRIGPAVLAGEIAAARGQFNSAIAHLEQAVRLEDSLAYTEPPEWQAPPRLTLGAILLEAGHPAEAETVYWEDLRRNRNNGWALYGLLQALRAQGKNERAALVEERFNKAWARADVKLGASRFGCVFSPMTMAGQSR”, the protein production result is recorded as “failed”. For “MQCRDHSTHLVSLPNSQGPAVPFTMRRPVRPPSVPMSRYRTAPLATTELPPGIPFIIGNELAERFSYYGMRAILVVFMTRYLVDAAGNPAPMQEGEAKGYFHLFVSLTYFTPFLGALLADGVLGKYRTIIALSLVYCLGHFALALDDTRTGLLLGQSLIALGAGGIKPCVSAHVGDQFGQSNRHLLSQIYGWFYLAINLGAFVSMLLIPWLLERHGASVAFAVPGLLMLIATLVFWAGRHRFVHIPPGGMRFIREAWSSEGRRGVGRLIGVFLFITMFWALFDQTGSSWVLQSQRMDRVLFGHAILPSQIQAANPLLIVLLTPFFHHLLYPALARLIPMTALNKIALGLSFTVLAFALAAWIQMRIDTGLKPSIGWQLLAYLLLTSAEVMVSITSLEFAYTQAPLTMKSFVMALYLGAVALGNLFTALVNFWIERSKTPWLDGAGYFWFFTGLMLATALGFFAYSRNYREELHLQTER” the value was “failed”. “MQDFWHAASAQLESELTPQQFKTWIKPLTPLSFDEQACMLRIAAPNRFKLDWVKSQFSGRIQSLACDYWEMQVDVQFVLDPTAGQRQAAMQPALAPMPMQPLAAQTMQAQAVPREAPARPTMAPYRETPMATAAHAAADIDVPVMDAAEASTQSYRVPAPAAPAVMGGLSAPPAAPVDDTVHERSRLNPILTFDNLVTGKANQLARAAAVQVANNPGKSYNPLYLYGGVGLGKTHLIHAIGNFMLMENPRARIRYIHAEQYVSDVVKAYQRKAFDDFKRYYHSLDLLLIDDIQFFSGKNRTQEEFFYAFEALIANRAQVIITSDTYPKEITGIDDRLISRFDSGLTVAIEPPELEMRVAILMKKAQAENVTVPEEVAFFVAKHLRSNVRELEGALRKILAYSNFHGKEITIEVTREALKDLLTVQNRQISVENIQKTCADFYNIKVADMYSKKRPANIARPRQIAMYLAKELTQKSLPEIGELFGGRDHTTVLHAVRKIADERSKDAQLNHELHVLEQTLKG”: the protein production entry is recorded as “failed”. Take “MQDLNDIALFAAVVKHNGFSAAARDLNVPKSKLSKHVARLEEQLGVRLLERSTRKLRMTEVGRIFYEHAQGLLDGVAAAEAEIAAVRAEPTGVVRLACPIGFTPMLADILPAFHRRYPGVRLLITASNRRIDLIEERIDVALRARDQLDTDSQLIVRKFGEVRQRLAASPTLLARLGEITTDNLSQMPTLSMNEQHPNDVWRLVHATGGAIEIAHRPVVGCSDFLILERAAIEGMGIALLPDHICERAFRTGALVPVLPEWTSGNVMVHLVFPSRHGLLPATRALIDFLAENLIKALERCREVDPRPAASFEI”: the protein production entry is on record as “failed”. The entry for “MQDNSVNETKNIVEVGIDSSIEESYLAYSMSVIIGRALPDARDGLKPVHRRILYAMHELGLTSKVAYKKSARIVGDVIGKYHPHGDNAVYDALVRMAQDFSMRLELVDGQGNFGSIDGDNAAAMRYTEARMTKASEEILRDIDKDTIDFVPNYDDTLKEPDILPSRLPNLLVNGANGIAVGMATSIPPHRMDEIIDALVHVLENPNAGLDEILEFVKGPDFPTGGIIYGKAGIIEAYKTGRGRVKVRAKVHVEKTKNKEIIVLDEMPFQTNKAKLVEQISDLAREKQIEGISEVRDESDREGIRVVIELKRDAMSEIVLNHLYKLTTMETTFSIILLAIYNKEPKIFTLLELLHLFLNHRKTIIIRRTIFELEKAKARAHILEGYLIALDNIDEIVRLIKTSQSPEAAKNALMERFTLSEIQSKAILEMRLQRLTGLERDKIKEEYQNLLELIDDLNGILKSEDRLNGVVKTELLEVKEQFSSPRRTEIQESYENIDIEDLIANEPMVVSMSYKGYVKRVDLKAYEKQNRGGKGKLSGSTYEDDFIENFFVANTHDILLFITNKGQLYHLKVYKIPEASRIAMGKAIVNLISLAPDEKIMATLSTKDFSDERSLAFFTKNGVVKRTNLSEFESNRSCGIRAIVLDEGDELVSAKVVDKNAKHLLIASHLGIFIKFPLEEVREIGRTTRGVIGIKLNENDFVVGAVVISDDGNKLLSVSENGLGKQTLAEAYRGQSRGGKGVIGMKLTQKTGNLVGVISVDDENLDLMILTASAKMIRVSIKDIRETGRNASGVKLINTADKVMYVNSCPKEEEPENLETSSAQNLFE” is “failed”; for “MQDRMLRRVFILAGIALLLWVLYLLKPVVIPFVGAFLIAYLFSPLVEKLSKIGLPRWLSISIVFIGIGVLLTWAMWYVVPLVWQQLMYARDSIPSGIHWVNATFLPWVSHTFNVERMEIDTDQISTVVMEYIQTNYSADSIQTMALRLAQSGLNFIQIGGTIVLIPIISFYFLLDWDRMLNSLRRLIPRPYEESTLRIVYECHSVLGAFVKGQFLVMLLLGIVYAVGLQLIGLEVGLIIGMVAGLASIIPYLGFAVGIIAAVIATVFQFGVDWMQLALVGVVFMIGQAVEGYILQPFLLGDKIGLSPVAVVFAVLAGAQLAGFLGMLIALPVAAVIVVLLRHLREAYEHTQMYAGTATVVSTGNGEHISIETENLDLDIEVKNPQDTDTSIDNDRK” it is “failed”. For “MQEIQRFNKVLKSCVLFGDIILLNSLLWGFELVLGSRFYSGNLTSLYQGMVLLSLCYLVCNIQSGVILHHPVVRPEQIMIRVLRNMVPFILFSICFLSLFHFEFFRSRLFGLFYVALLIILICYRLAFRYFLELYREKGGNVRMVVLVGSHENMQELYHSMTDDPTSGYRVMGYFEDSPSDYYPEEVAYLGQPKEAIEYLERNSGKIAQLYCSLPSVRSAEIVPIINYCENHLVRFFSVPNVRNYLKRRMYFDLLGNVPVLSIRREPLELRENRVLKRFFDIIFSLIFLCTIFPFVYIIIGIAIKISSPGPIFFKQKRSGEDGREFWCYKFRSMRVNAQCDVLQATANDPRKTRIGEFIRKTSIDELPQFINVLMGDMSVVGPRPHMLKHTEEYAQVINKFMVRHFVKPGITGWAQVTGYRGETKELWQMEGRVSRDIWYIEHWTFMLDLYIIYKTVYNAIHGEKEAY” the value was “failed”; for “MQEISAYTLIKEKLQAIPNLRHKGILFEKISKQFLQEHDSANEYESIDLWYDWKLRGNERDKGIDIVITTFKQRIHRCAMQIPSK”, “failed”. For “MQFGVTKESQCHYLTDQEERLVVALPNDLENLNADAYQQLMQYGFRRSHNDVYRPHCRLCSACQSLRVVVPEFRFSKNQKRILKKNDDLTLQIKQQPEAEYSQLFSQFIEQRHADGEMYPPDPDKFWKWIDCDWLTPELLEWRNASNELMIVSVVDRTVDAMSAVYTFFHPDEEKRSPGTFAVLEMIRLAQEREVARLYLGYQIDDCKKMNYKTRFAPYERLVGNHWKKELKSHTLKAQNKD” the value was “failed”; for “MQFPSIEDLRARNTMKWTRYGQGVLPLWVAESDFSTCPAVLQAITDAVQREAFGYQPDGSLLSQATAEFYADRYGYQARPEWIFPIPDVVRGLYIAIDHFTPAQSKVIVPTPAYPPFFHLLSATQREGIFIDATGGINLHDVEKGFQAGARSILLCNPYNPLGMVFAPEWLNELCDLAHRYDARVLVDEIHAPLVFDGQHTVAAGVSDTAASVCITITAPSKAWNIAGLKCAQIIFSNPSDAEHWQQLSPVIKDGASTLGLIAAEAAYRYGTDFLNQEVAYLKNNHDFLLHEIPKRIPGAKITPMQATYLMWIDFRDTTIEGSPSEFFIEKAKVAMNDGAWFGEDGTGFCRLNFATSREVLEEAIDRMAKAVSHHT”, “not failed”.

In the case of “MQFYNRQKELKLMELLDQGKPSFFVITGKRRVGKTELIKQFTRNRKALYLFVDSNKSINILMDEFDRLLKEKLDLPDYIKVDEPENFLKFITSYDRDLVIAIDEFQRFQKVYPSFITQLQRYWDMKPDNCRIFLIVSGSSIGMIRKIFIEEQAPLFKRADNILTIKPFTVLETFEMLDGMGIKNPEEKLNLYFLFGGTVYYYRLFEKYQCTGFDDALEKLIFSEFAPLKNEVREILIEEFGKEHSTYYEIISAISQGRCSMSEISDMTHVSSSSLSPYFYDLIDLLGVVEHRIPVMDNPEKSKRGRYFLKDNFFRFYGRFIYPMYSRYMAGNYSPMLEKVRKEWQSYTGKIFEDIVHELLVEKMISDYPELGSWWNRKGDEIDILGVDHRGRKSLVIEVKNKELAENEAREILELTLDKTKLVKGISGQKLKVGIVAQKVKGRKNLEDDGFLVWELEELIPLEHHHHHH”, the protein production result is listed as “failed”. The entry for “MQGFTAYLVGFAIVAGFAVALGFIFGIFNQIVAQLNTDPNNPMISQEFVDAINLAQSLGGTGLTLAIAALIVGLAMLLIAVIRSYSGV” is “failed”; for “MQGHHAAARALRRQGRLGEAIARYRAALAATPGAAVLQAEMAECLFAAGQAEAAVKALGQAVRLDPDNATHRGNLAMLLARKGDLAGAIDHARAAVRLAPKDGALRLRLARLLIAAGHPREAEAEALDATRRLPREAASWIALAGARLLDQRPNDAEAPSARALALAPNDAEALSLRTDLLLSLGRLAEAEATARLALKRQPTSLAALVALSKAKTFRPDDPDWPALAALLPSLGERSAEEAVKLHFASAKALEDMGRDDEAFAHYQAGNSLKGRGLPDELPALSAMVDSLERWTPKLRPVGEGDPLPVFIVGMPRSGTTLVEQILDRHRAIHGAGEILLFGERVVANGLGGYSADPQGLDPERLAALGADYRDRLRGLAPRAGRIINKTPGNWLHLGLIAAALPGARIIWCRRDPVDCCLSCFRNLFGQGHAWTTDLGRAGRYYRLQERLTGHWQAVLGDERMTAVDYEALVADPEAEARRLVAHLGLEWDEACLDHTRGGRAVTTLSQVQVRQPITDASVGRGRRFQTHLGPLLTALDGR” it is “failed”. Turning to “MQGQNQQQAYDRGITIFSPDGRLYQVEYAREAVKRGTASIGVRTSDGVVLAVDKRIRSPLMERSSVEKIHKADDHIGIASAGHVADARQLIDFARRQAQVNQLRYGEPVGVETLTKEITDYIQQYTQVGGARPFGVALIIGGIVNGEPRLFETDPSGTPYEWKALAVGADRGDIRDYLEEHYDEGMDLDEGVDLALAALASVNDDELSPEGIGVATVDVETETFGQLTDEEKEAHLAEADLLDTGEDADDEAEDEDATEE”, the protein production entry was “failed”.
